Experimental findings from IntAct's records for PubMed 20407420 are described below.

B1: Two-component response regulator-like APRR1 (Arabidopsis thaliana (Mouse-ear cress)), Q9LKL2 (parent)
chain: MDLNGECKGGDGFIDRSRVRILLCDNDSTSLGEVFTLLSECSYQVTAVKSARQVIDALNAEGPDIDIILAEIDLPMAKGMKMLRYITRDKDLRRIPVIMMSRQDEVPVVVKCLKLGAADYLVKPLRTNELLNLWTHMWRRRRMLGLAEKNMLSYDFDLVGSDQSDPNTNSTNLFSDDTDDRSLRSTNPQRGNLSHQENEWSVATAPVHARDGGLGADGTATSSLAVTAIEPPLDHLAGSHHEPMKRNSNPAQFSSAPKKSRLKIGESSAFFTYVKSTVLRTNGQDPPLVDGNGSLHLHRGLAEKFQVVASEGINNTKQARRATPKSTVLRTNGQDPPLVNGNGSHHLHRGAAEKFQVVASEGINNTKQAHRSRGTEQYHSQGETLQNGASYPHSLERSRTLPTSMESHGRNYQEGNMNIPQVAMNRSKDSSQVDGSGFSAPNAYPYYMHGVMNQVMMQSAAMMPQYGHQIPHCQPNHPNGMTGYPYYHHPMNTSLQHSQMSLQNGQMSMVHHSWSPAGNPPSNEVRVNKLDRREEALLKFRRKRNQRCFDKKIRYVNRKRLAERRPRVKGQFVRKMNGVNVDLNGQPDSADYDDEEEEEEEEEEENRDSSPQDDALGT
partner: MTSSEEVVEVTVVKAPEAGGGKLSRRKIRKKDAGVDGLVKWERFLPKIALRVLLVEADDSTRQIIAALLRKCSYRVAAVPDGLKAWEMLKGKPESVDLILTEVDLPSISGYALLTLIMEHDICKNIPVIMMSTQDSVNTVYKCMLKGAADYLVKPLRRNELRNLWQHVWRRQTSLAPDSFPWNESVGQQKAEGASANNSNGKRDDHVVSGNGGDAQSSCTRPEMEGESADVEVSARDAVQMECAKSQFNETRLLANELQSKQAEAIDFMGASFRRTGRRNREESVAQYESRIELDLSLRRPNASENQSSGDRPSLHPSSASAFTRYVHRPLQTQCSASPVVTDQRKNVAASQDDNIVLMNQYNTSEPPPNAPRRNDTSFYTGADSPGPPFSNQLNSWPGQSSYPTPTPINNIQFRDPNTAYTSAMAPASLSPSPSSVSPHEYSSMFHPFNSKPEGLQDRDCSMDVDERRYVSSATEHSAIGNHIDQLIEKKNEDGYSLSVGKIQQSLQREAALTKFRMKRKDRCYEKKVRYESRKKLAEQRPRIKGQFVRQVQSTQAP
B2: Two-component response regulator-like APRR1 (Arabidopsis thaliana (Mouse-ear cress)), Q9LKL2 (parent)
chain: B1 chain

The variants in one experiment derive from B1. The settings on record: with aprr5_arath APRR5, Q6LA42.
As to P96L, the “effect of a mutation on the interaction” value is recorded as “disrupting interaction”.

The variants in the next experiment derive from B1. The settings on record: with aprr5_arath APRR5, Q6LA42. This is another data set of the same source.
For P124S, the “effect of a mutation on the interaction” value is “decreasing interaction”.

Variants of B2 are the subject of a further experiment. The conditions noted are these: with ado1_arath ADO1, Q94BT6.
Chain of ado1_arath ADO1, Q94BT6 (Q94BT6 whole entry): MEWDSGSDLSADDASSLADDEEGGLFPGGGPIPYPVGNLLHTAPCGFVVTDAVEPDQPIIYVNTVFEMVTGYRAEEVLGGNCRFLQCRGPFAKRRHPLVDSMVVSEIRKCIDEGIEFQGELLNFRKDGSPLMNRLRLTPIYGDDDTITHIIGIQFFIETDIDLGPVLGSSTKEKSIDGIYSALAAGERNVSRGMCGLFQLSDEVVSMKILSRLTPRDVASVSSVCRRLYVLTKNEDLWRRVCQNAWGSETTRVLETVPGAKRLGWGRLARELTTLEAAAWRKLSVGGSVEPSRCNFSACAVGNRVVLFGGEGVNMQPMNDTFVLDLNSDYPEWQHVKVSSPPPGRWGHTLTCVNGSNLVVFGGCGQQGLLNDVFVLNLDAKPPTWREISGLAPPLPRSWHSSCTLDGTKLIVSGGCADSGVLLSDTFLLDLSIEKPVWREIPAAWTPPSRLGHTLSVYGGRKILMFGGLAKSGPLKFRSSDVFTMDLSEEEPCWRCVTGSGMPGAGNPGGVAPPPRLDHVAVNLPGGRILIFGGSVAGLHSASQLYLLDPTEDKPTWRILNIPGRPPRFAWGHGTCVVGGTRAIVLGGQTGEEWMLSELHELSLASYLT
Regarding P96L, the “effect of a mutation on the interaction” value is “decreasing interaction”.
